In patent publication US20020032310A1:

Target: KGFR (keratinocyte growth factor receptor, KGFR-type isoform of the FGFR2/BEK gene) (mouse) (UniProt P21803)
Experiment: cell-based or functional assay

With “KGF secreted from NIH 3T3 cells (from UniProt P36363 32-194) (ligand)” the Transforming Activity was 14000 ffu/pmol DNA.
